Test results as given in paper PMC6514982, “Disruption of Structural Disulfides of Coagulation FXIII-B Subunit; Functional Implications for a Rare Bleeding Disorder” (International Journal of Molecular Sciences, 2019).

Biological target: the molecule itself
Assay: native gel or EMSA; non-denaturing Native-PAGE (BN sample buffer), transfer to PVDF, Western blot with mouse anti-human FXIII-B antibody

B1: recombinant wild type FXIII-B subunit (coagulation Factor XIII B subunit) (natural protein, human, UniProt P05160 21-661, looked up)
chain: EEKPCGFPHVENGRIAQYYYTFKSFYFPMSIDKKLSFFCLAGYTTESGRQEEQTTCTTEGWSPEPRCFKKCTKPDLSNGYISDVKLLYKIQENMRYGCASGYKTTGGKDEEVVQCLSDGWSSQPTCRKEHETCLAPELYNGNYSTTQKTFKVKDKVQYECATGYYTAGGKKTEEVECLTYGWSLTPKCTKLKCSSLRLIENGYFHPVKQTYEEGDVVQFFCHENYYLSGSDLIQCYNFGWYPESPVCEGRRNRCPPPPLPINSKIQTHSTTYRHGEIVHIECELNFEIHGSAEIRCEDGKWTEPPKCIEGQEKVACEEPPFIENGAANLHSKIYYNGDKVTYACKSGYLLHGSNEITCNRGKWTLPPECVENNENCKHPPVVMNGAVADGILASYATGSSVEYRCNEYYLLRGSKISRCEQGKWSSPPVCLEPCTVNVDYMNRNNIEMKWKYEGKVLHGDLIDFVCKQGYDLSPLTPLSELSVQCNRGEVKYPLCTRKESKGMCTSPPLIKHGVIISSTVDTYENGSSVEYRCFDHHFLEGSREAYCLDGMWTTPPLCLEPCTLSFTEMEKNNLLLKWDFDNRPHILHGEYIEFICRGDTYPAELYITGSILRMQCDRGQLKYPRCIPRQSTLSYQEPLRT
notes: Coagulation factor XIII B chain, human; F13B cDNA (ORF length 1986 bp) in the pEZ-M01 vector; The whole ORF was expressed; the secreted product was analysed; also called rFXIII-B; rFXIII-B2; source: HEK293T, transiently transfected, secreted into the culture medium
In the case of B1, the “stoichiometry N” value is reported as 2.
